Changes are numbered by the printed parent chain. Names may count otherwise.
How the values were obtained:
[1] = target: T1, coil C-mCherry-6xHis fusion protein (human); assay: ITC, C′-GFP injected into C-mCherry, PBS pH 7.5, 25 °C
T1 construct: also called mCherry-C; wild-type mCherry-C; not shown: mCherry red fluorescent protein fused to the C-terminal of coil C
T1 chain: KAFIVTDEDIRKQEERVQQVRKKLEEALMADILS
Procedure: ITC analysis was conducted using MicroCal Auto-iTC200 (Malvern Panalytical) at the Korea Basic Science Institute (Ochang, Korea). […] For titration, 2 μL of C′-GFP was injected to C-mCherry 19 times at 25° C. for 4 seconds, with 150-seconds intervals, and data were analyzed using the MicroCal Origin 7.0 software. N is the stoichiometric number, KD is the binding affinity, and AH and AS are changes in enthalpy and binding entropy, respectively.

[2] = target: T2, C_Ala27 (A27C) coil C mutant fused to mCherry (human); assay: FRET between GFP and mCherry, equimolar mixture, 4 µM, plate reader
T2 construct: also called C half of Ala27-Ile8
T2 chain: T1 chain with A27C
Procedure: (§1) A sample of wild-type GFP alone or a mixture of C′-GFP/C-mCherry, Ala27-lle8 and Thr6-Arg29 in equimolar quantities was diluted appropriately with phosphate-buffered saline (PBS) to make a total volume of 200 μL and a concentration of 4 μM. The sample was transferred to a 96-well plate and the absorbance at 510 nm 488 nm and luminescence (fluorescence) of each well were measured with the Synergy H1 hybrid multi-mode microplate reader (BioTek). After calculating the luminescence (A) per unit absorbance of the wild-type GFP alone sample and the luminescence (B) per unit absorbance of each sample, fluorescence resonance energy transfer efficiency was calculated by the following equation.

[3] = target: T3, C_Thr6 (T6C) coil C mutant fused to mCherry (human); assay: as above
T3 construct: also called C half of Thr6-Arg29
T3 chain: T1 chain with T6C
Procedure: as §1

B1: coil C′-GFP-6xHis fusion protein (other)
chain: PEERERMIKQLKEELRLEEAKLVLLKKLRQSQIQKEATAQK
notes: also called GFP-C′; wild-type GFP-C′; not shown: green fluorescent protein (GFP) fused to the C-terminal of coil C′
Kd [1]: 10.7 nM | ΔH [1]: -2.6 kcal/mol | ΔS [1]: -52.4 cal/mol/deg

PEERERMCKQLKEELRLEEAKLVLLKKLRQSQIQKEATAQK (other, not shown: large carriers, not fully specified, also called 18C; C′ half of Ala27-Ile8) [C′_Ile8 (I8C) coil C′ mutant fused to GFP]
FRET efficiency, fold against wild-type (GFP-C′+mCherry-C) [2]: ≥ 2 fold

PEERERMIKQLKEELRLEEAKLVLLKKLCQSQIQKEATAQK (other, not shown: large carriers, also called C′ half of Thr6-Arg29) [C′_Arg29 (R29C) coil C′ mutant fused to GFP]
FRET efficiency, fold against wild-type (GFP-C′+mCherry-C) [3]: ≥ 2 fold

Source: patent US20240277857A1 (NBIOS, published 2024)
